Data from patent publication US20250000991A1, “NECTIN-4 ANTIBODIES AND ANTIBODY-DRUG CONJUGATES” (Eli Lilly and Company, priority 2023, published 2025).

How the values were obtained:
[1] = target: human Nectin-4-eGFP on T24 cells (clone 3) (human) (UniProt Q96NY8); test: cell-based or functional assay
[2] = target: human nectin-4 on cells (human) (UniProt Q96NY8); test: cell-based or functional assay

% activity (max GFP signal loss compared to enfortumab mAb (100%)) [1]: 120%
EC50 (nM) of nectin-4-eGFP signal loss [1]: 2.55 nM
B1: enfortumab ADC (enfortumab conjugated as in Formula XI, DAR of 8) (antibody, INN chains, looked up, V domains shown)
VH: EVQLVESGGGLVQPGGSLRLSCAASGFTFSSYNMNWVRQAPGKGLEWVSYISSSSSTIYYADSVKGRFTISRDNAKNSLSLQMNSLRDEDTAVYYCARAYYYGMDVWGQGTTVTVSS
VL: DIQMTQSPSSVSASVGDRVTITCRASQGISGWLAWYQQKPGKAPKFLIYAASTLQSGVPSRFSGSGSGTDFTLTISSLQPEDFATYYCQQANSFPPTFGGGTKVEIKR
modifications: drug conjugate Formula XI, DAR 8
Cytotoxicity IC50, NCI H1781 cells [2]: 40.9 pM
Cytotoxicity IC50, T24 Nectin-4 clone 108 cells [2]: 74.7 pM
